Drawing on paper doi:10.1101/411223 (bioRxiv, 2018), this text covers binding result and stoichiometry N for two molecules.

Experiment [1] addresses T1, Kap114p (Δ899-956) (S. cerevisiae, UniProt P53067 1-1004, Δ899-956).
T1 sequence (looked up): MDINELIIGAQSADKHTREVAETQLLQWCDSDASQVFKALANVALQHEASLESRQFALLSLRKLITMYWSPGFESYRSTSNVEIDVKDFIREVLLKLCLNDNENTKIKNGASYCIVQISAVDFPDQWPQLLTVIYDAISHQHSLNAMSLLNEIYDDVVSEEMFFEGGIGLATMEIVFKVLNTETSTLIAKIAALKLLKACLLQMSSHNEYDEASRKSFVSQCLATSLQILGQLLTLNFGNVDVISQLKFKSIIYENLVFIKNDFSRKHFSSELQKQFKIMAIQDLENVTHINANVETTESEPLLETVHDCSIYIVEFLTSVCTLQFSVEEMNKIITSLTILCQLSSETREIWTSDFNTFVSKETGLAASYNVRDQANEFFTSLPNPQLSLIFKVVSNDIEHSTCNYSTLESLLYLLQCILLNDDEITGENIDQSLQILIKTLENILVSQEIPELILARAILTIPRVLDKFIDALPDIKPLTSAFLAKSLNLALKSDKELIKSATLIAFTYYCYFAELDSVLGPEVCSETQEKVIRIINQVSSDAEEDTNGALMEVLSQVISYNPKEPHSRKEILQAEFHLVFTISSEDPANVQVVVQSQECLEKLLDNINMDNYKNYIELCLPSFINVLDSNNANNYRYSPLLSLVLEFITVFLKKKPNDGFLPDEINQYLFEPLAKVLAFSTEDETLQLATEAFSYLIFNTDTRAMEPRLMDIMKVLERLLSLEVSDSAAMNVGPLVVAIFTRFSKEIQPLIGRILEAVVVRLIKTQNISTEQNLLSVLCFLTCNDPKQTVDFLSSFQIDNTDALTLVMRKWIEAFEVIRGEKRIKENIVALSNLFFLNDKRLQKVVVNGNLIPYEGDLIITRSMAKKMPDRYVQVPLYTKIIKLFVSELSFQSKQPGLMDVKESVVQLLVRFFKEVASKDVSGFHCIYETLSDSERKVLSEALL
Kind of experiment: pull-down.

Experiment [2] addresses T2, Kap114p (Δ347-371) (S. cerevisiae, UniProt P53067 1-1004, Δ347-371).
T2 sequence (looked up): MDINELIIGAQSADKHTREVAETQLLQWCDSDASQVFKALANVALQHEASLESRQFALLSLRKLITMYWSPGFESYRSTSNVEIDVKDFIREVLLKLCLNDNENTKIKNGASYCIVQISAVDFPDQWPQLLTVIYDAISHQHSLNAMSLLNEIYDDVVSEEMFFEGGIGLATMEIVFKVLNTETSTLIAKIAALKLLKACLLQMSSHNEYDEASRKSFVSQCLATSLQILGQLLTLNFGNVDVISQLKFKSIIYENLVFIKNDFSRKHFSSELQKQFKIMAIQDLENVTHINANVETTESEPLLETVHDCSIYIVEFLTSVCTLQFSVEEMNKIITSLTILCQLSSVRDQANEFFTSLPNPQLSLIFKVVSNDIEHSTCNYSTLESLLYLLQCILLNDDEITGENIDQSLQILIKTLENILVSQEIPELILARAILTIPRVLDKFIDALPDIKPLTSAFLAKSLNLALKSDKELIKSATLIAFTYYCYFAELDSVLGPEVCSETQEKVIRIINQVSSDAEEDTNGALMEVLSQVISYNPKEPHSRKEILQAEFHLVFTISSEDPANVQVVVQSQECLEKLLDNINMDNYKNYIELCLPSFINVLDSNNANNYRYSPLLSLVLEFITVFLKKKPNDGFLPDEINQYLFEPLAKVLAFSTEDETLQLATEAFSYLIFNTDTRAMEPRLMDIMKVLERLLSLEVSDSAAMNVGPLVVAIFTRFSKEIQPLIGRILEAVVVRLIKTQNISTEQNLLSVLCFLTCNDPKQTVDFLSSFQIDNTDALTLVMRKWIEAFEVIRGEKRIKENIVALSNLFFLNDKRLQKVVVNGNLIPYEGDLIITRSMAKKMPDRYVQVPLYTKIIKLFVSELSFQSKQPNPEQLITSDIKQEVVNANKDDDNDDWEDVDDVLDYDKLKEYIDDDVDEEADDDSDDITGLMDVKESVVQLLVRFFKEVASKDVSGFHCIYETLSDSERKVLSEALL
Kind of experiment: pull-down.

Experiment [3] addresses His-tagged RanQ69L, P62826. Kind of experiment: SEC. The settings on record: remark: other sources report otherwise.

B1: GST-fused yTBP (61-240) (domain or fragment, S. cerevisiae, UniProt P13393 61-240, looked up)
chain: SGIVPTLQNIVATVTLGCRLDLKTVALHARNAEYNPKRFAAVIMRIREPKTTALIFASGKMVVTGAKSEDDSKLASRKYARIIQKIGFAAKFTDFKIQNIVGSCDVKFPIRLEGLAFSHGTFSSYEPELFPGLIYRMVKPKIVLLIFVSGKIVLTGAKQREEIYQAFEAIYPVLSEFRKM
For the molecule B1, the binding result in experiment [1] and in experiment [2] was “binds” in each case.

B2: Kap114p, P53067 1-1004 (natural protein)
chain: MDINELIIGAQSADKHTREVAETQLLQWCDSDASQVFKALANVALQHEASLESRQFALLSLRKLITMYWSPGFESYRSTSNVEIDVKDFIREVLLKLCLNDNENTKIKNGASYCIVQISAVDFPDQWPQLLTVIYDAISHQHSLNAMSLLNEIYDDVVSEEMFFEGGIGLATMEIVFKVLNTETSTLIAKIAALKLLKACLLQMSSHNEYDEASRKSFVSQCLATSLQILGQLLTLNFGNVDVISQLKFKSIIYENLVFIKNDFSRKHFSSELQKQFKIMAIQDLENVTHINANVETTESEPLLETVHDCSIYIVEFLTSVCTLQFSVEEMNKIITSLTILCQLSSETREIWTSDFNTFVSKETGLAASYNVRDQANEFFTSLPNPQLSLIFKVVSNDIEHSTCNYSTLESLLYLLQCILLNDDEITGENIDQSLQILIKTLENILVSQEIPELILARAILTIPRVLDKFIDALPDIKPLTSAFLAKSLNLALKSDKELIKSATLIAFTYYCYFAELDSVLGPEVCSETQEKVIRIINQVSSDAEEDTNGALMEVLSQVISYNPKEPHSRKEILQAEFHLVFTISSEDPANVQVVVQSQECLEKLLDNINMDNYKNYIELCLPSFINVLDSNNANNYRYSPLLSLVLEFITVFLKKKPNDGFLPDEINQYLFEPLAKVLAFSTEDETLQLATEAFSYLIFNTDTRAMEPRLMDIMKVLERLLSLEVSDSAAMNVGPLVVAIFTRFSKEIQPLIGRILEAVVVRLIKTQNISTEQNLLSVLCFLTCNDPKQTVDFLSSFQIDNTDALTLVMRKWIEAFEVIRGEKRIKENIVALSNLFFLNDKRLQKVVVNGNLIPYEGDLIITRSMAKKMPDRYVQVPLYTKIIKLFVSELSFQSKQPNPEQLITSDIKQEVVNANKDDDNDDWEDVDDVLDYDKLKEYIDDDVDEEADDDSDDITGLMDVKESVVQLLVRFFKEVASKDVSGFHCIYETLSDSERKVLSEALL
The term stoichiometry N denotes a count of units in the complex or per binding partner. With B2, the stoichiometry N in experiment [3] was 1.
